Laboratory results reported in the DeepSol protein solubility set.

Test: soluble on expression in E. coli; label from the status in PepcDB or PDB records

Sequence | soluble on expression in E. coli
MSAIENFDAHTPMMQQYLRLKAQHPEILLFYRMGDFYALFYDDAKRASQLLDISLTKRGASAGEPIPMAGIPYHAVENYLAKLVNQGESVAICEQIGDPATSKGPVERKVVRIVTPGTISDEALLQERQDNLLAAIWQDSKGFGYATLDISSGRFRLSEPADRETMAAELQRTNPAELLYAEDFAEMSLIEGRRGLRRRPLWEFEIDTARQQLNLQFGTRDLVGFGVENAPRGLCAAGCLLQYAKDTQRTTLPHIRSITMEREQDSIIMDAATRRNLEITQNLAGGAENTLASVLDCTVTPMGSRMLKRWLHMPVRDTRVLLERQQTIGALQDFTAGLQPVLRQVGDLERILARLALRTARPRDLARMRHAFQQLPELRAQLETVDSAPVQALREKMGEFAELRDLLERAIIDTPPVLVRDGGVIASGYNEELDEWRALADGATDYLERLEVRERERTGLDTLKVGFNAVHGYYIQISRGQSHLAPINYMRRQTLKNAERYIIPELKEYEDKVLTSKGKALALEKQLYEELFDLLLPHLEALQQSASALAELDVLVNLAERAYTLNYTCPTFIDKPGIRITEGRHPVVEQVLNEPFIANPLNLSPQRRMLIITGPNMGGKSTYMRQTALIALMAYIGSYVPAQKVEIGPIDRIFTRVGAADDLASGRSTFMVEMTETANILHNATEYSLVLMDEIGRGTSTYDGLSLAWACAENLANKIKALTLFATHYFELTQLPEKMEGVANVHLDALEHGDTIAFMHSVQDGAASKSYGLAVAALAGVPKEVIKRARQKLRELESIS | soluble
MGSDKIHHHHHHMDFVAVAVHTEYRCNQGWETRAECHWFVSTIRAIMTATQSISLVGGEGDELLMQRYASGDIQAFDTLYRRHKGGLYRYFLRQIGDSQLAEDLYQETWGRVIKAAPAYEISAKFTTWLYRIAHNLLIDHVRAVKPLNEADTLDEEGMALTDSMTPVRSHEHDLKVQALKHCVGLLPQVQKEAFLLSSEMGFTALMISEIASVSLEATKSRIRYAYQSLKTCVAKRLGEDSDER | not soluble
MAGASETYTHTLTDVPIDIKYDSDDYFISGYSYGADVYMSSVNRVKLDSEINEDTRKFKVVADLTNMKPGTHKVPLKVVNLPSGVNATVSPTTITVTMGKKKTLEHHHHHH | soluble
MSLTDHGFSFCAHAEQYAIIGSLSQLETSDNRDCDIRRPALNRCMAEKGTLRPEAAQIFQRLEALGLKQRELAQALGIEENKISKVRAGERQFKGAELLAAYEWLDQREAEAHMPRLSRVAAVGQQVIPATPVEGEVVQIQKLDLSLSMGPGTLIDGYVESELVSFDLGFVRLFTRAASDHLRLVTGIGDSMEPTLKWGDLILIDTTDRMLSKQDGIYWINLYGAAGIKRLRAIGPRTILVKSDNPGVDDQEVEAEDLRIEGRAIWATRGLEGHHHHHH | soluble
MGHHHHHHSHMRGCGSRRLCGSWRGCWSWSGKPSTSSRPSPTAALRSWNNENKSALQLERQVKELKLGEPGSYQPAETAAKAQLSLMALPGEGYGGGHLDNEEEAPRPMLNIPGDLESREAMVAFFNSAGASAQEEQSVCCQPLAHPVASSQKKPEAAAPAPETGGESVCGDTHWALQEAMEKLQQLYGRRRWT | not soluble
ASSKNLSETLFQNHKQAKETSSLTQYMPSSLELLDTRREQSSQAWYRNLRRLQWIWQGVDPVEQEEILARIASSKHSRTHDEWLDTVMGYRSGNWTYEWTRVGMLHQKQAAERQGEEAADQMFAAALYYSIAGYPHLRNDNLALQAQVLANNAYQEAAKLTGFVVKRLEFSYQNKKIAGYLHLRNTDSPKPVVLVSAGLDSLQTDMWRLFRDYLAKRDIAMLTIDMPSLGASSHWPLTEDSSCLHQAVLNQLADLPWVDHFRIGLIGFRFGGNAMARLAFLESDKVKACVSLGAPIHDIFTSPNKLAAMPKMYLDVLASRLGKNVVDVRSLSGQLMAWSLKVQGFMSGRRTKTPILALGLEGDPVSPYSDNQLVALFSQGGQAKKVKSKTISQGYEQSLDLAINWLEDELC | not soluble
MEKNMKIELITIKEFIEQAECYFRNYMDGLRRNAPDDFYYFLNNKYNMNDIMESIIKKTRYHFYDDTEEGKRNRIYGEVNHCKVKQHLRQLWIVYKCVYR | soluble
MRGEFYQQLTNDLETARAEGLFKEERIITSAQQADITVADGSHVINFCANNYLGLANHPDLIAAAKAGMDSHGFGMASVRFICGTQDSHKELEQKLAAFLGMEDAILYSSCFDANGGLFETLLGAEDAIISDALNHASIIDGVRLCKAKRYRYANNDMQELEARLKEAREAGARHVLIATDGVFSMDGVIANLKGVCDLADKYDALVMVDDSHAVGFVGENGRGSHEYCDVMGRVDIITGTLGKALGGASGGYTAARKEVVEWLRQRSRPYLFSNSLAPAIVAASIKVLEMVEAGSELRDRLWANARQFREQMSAAGFTLAGADHAIIPVMLGDAVVAQKFARELQKEGIYVTGFFYPVVPKGQARIRTQMSAAHTPEQITRAVEAFTRIGKQLGVIA | soluble
MFKKLKASLGIGSAKVDTILDEMSVFQGATLKGHVHIKGGDVEQQIDAITIKLNTEMKVEVDDSVSYQTFTIDQLKAVDPFVIQPNEEKQVPFELKLHDETPITAVSALKNQCNVWVETTLDIDFAIDPRDRDYIEVKPLPVASRVIRAIEQAGFTMVKADVEKGFLRGGSFASRSGIYQELEFRNSGFVSSKEIELSFILEGQVMHCLAEIDRSLSFSGDQYRSFTLPINATDAQVAAAVAPTLSL | not soluble
MMLHAQHMPGQPGTPSLVFLHGFSGDCHEWQPVGEQFHGCSRLYIDLPGHGGSAAIPVDGFADVIRLLRATLISYNILKFWLVGYSLGGRVAMMAACQGIPGLCGLVVEGGHPGLQNEQARAERRLSDGRWAERFRHEPLTEVFHDWYQQPVFASLTAQQRQALTALRSQNNGETLAAMLEATSLAVQPDLREALNALAFPFYYLCGERDSKFRALAQEVAATCHVIRNAGHNAHRENPAGVVDSLAQILRL | not soluble
MTDLSRMQGFADSAIPALEGRFFRPPLPEGYVPRSRLCQRLNEGLGGRLLLVCAPAGFGKSSLAVEFCQGLPDQWQNVWLGLSARDSEPGRFLERLLGSLQQFFPQLGAQAMGLLKMRQRHQPFAFEEWLDSLLDELAMHLMLSKPLLLVLDDYHLAQGPVLDRCLQFFLNHLPAGLVVMVTSRQRPDWHLARLRLTRQLLEINEQDLRLTQAESMAVLDRHSRSLDSEALQSLILRSEGWVAGLRFWLLAASEAGDESALSQALRGSEVLIREYLLEEVIDCLPADVQAFLYDTACLERFCAELCNAARDSHDSVEMLRYLQAHQVFLVPLDEQGRWFRYHHLFSDLLRARQTADAQTTRLHLNACRWFSAQGQLDEAVEQALRAGHLDVAANLVQNLSEEQLLAEQNVGMLLRWKMDLPDDLLTSTPRLIVLYAWALGLACQLDAAEELANQLSRFLPAPSATAQKSMLAQWLALSGIIARGRGDSEKTERYCREALLTLPQRRYGQRLVCLSTLANLAVAEGDLWQARVLNRDALELAQRVANPLFEALAHYDRARVLQARGEIIRALEEVRQGQQRLKGLSTVRLYAVRARLTLYEGYLLALRLQVDEGRALLLAGLAEARACRDISVLIGHCVIATMEGFAGRFAEAFAELAEAERLMHIWDVPPIYYLAMITLVKCELWLIQGRIDLAEAWLLRLTQTYNGGLGAAAPECHPQLSQHIELQRAVLERIQGDEVASEQRLQALEQRAQEVGAQLLRLIAMTQQIALLLNQGRQDEARTLLIRSVQASAGGALLPFRVLLAEHSQWLHEQLQLAPSCKLCNALREKFPACFKPAAPEPAHGSDCLSVRELGVLRLIAQGCSNQEISEQLFISLHTVKTHASHINSK | not soluble
MAPATERNRDAILAVLKDELRSPGTVLEIASGTGEHGAYFAPQLPDYFWQPSDPNEESRRSIAAWRSHVNAPNLGEAIAIDVTRSDWVESVPEFPQPVVAIAAINLIHISPWEATLGLFAGAKQLLSVDGLIYLYGAYKRGGQHTAPSNEAFDASLQARNPAWGARNLEDVTAVAEAEQFRLDRIVEMPSNNLSVCFRAIALEHHHHHH | not soluble
TGTAIYFIHGTADQPAAFKRVAERLIDTGLPDEICSLNLLAFDQRYQGKSIKFFAEQLKNKIKVNQHQRVILMAHSRGGLVASYFAEFLAKEASIDVPLVITMGTPFNGSYLAVKPLSWFSDSIREMEINSEFLAQLKQEIVEHSVSAYHFFIAKEDAIVPGESGYIKDYVDKYPESLHILDRHGHLSIMSSHRLVSHISSLLHDYIDDY | not soluble
MEQTLRVSVFGATGYTGIELLRSLLTHPHFEVKNLISQSYKGKKVREVLPFFSNTYISEIEFLEEPVEDYELAFLCLPHEVSYEIVPKLLSQGKKVVDLSGAYRIKSPKAYEEFYGFKHEREDILQRAVYGLPEVFREEIKNSDLVANPGCYPTATLLAIYPFLKERVGIESVIVHALSGVSGAGRKPKQQFHFPEMTENFFNYAVEKHRHTPEMEDVIRRVYGREVKVRFTPTVVPTSRGMISTVYLKSEKLNVKELFKEVYEDEIFVKVVDEPPQTKWVLGTNYCFIYPHYDERTGYYVIISAIDNLGKGASLQAVQNANLMFGLAEDDGLLQLPVFP | soluble
MSLTRATKGFLSKSLPKASEATPGSQSSDYIPLVSLQLASGAFLLNEAFCTTIQIPMEKLKWTSPFSCLRMSLVTRRQDLKTQSPQDCTSLSSSPPSCDGISLKSEESSDQESNAMLEHMGKLWATVVALAWLEHSSANYIIEWELVAAKASSWVEKQKVPEGRTLSTLKNTARQLFVLLRHWDEKLEFNMLCYNPNYVEGHHHHHH | not soluble
MGHHHHHHSHMRENNLHTVCEEAKCPNIHECWAVRRTATFMILGSVCTRACRFCAVKTGLPTELDLQEPERVADSVALMNLKHAVITAVARDDQKDGGAGIFAETVRAIRRKSPFTTIEVLPSDMGGNYDNLKTLMDTRPDILNHNIETVRRLTPRVRARATYDRSLEFLRRAKEMQPDIPTKSSIMIGLGETKEEIIEVMDDLLANNVDIMAIGQYLQPTKKHLKVQKYYHPDEFAELKEIAMQKGFSHCEAGPLVRSSYHADEQVNEASKKRQAQA | soluble
MAHHHHHHMPAAVTVHPLVLLSIVDHVTRVGLQTQQQRSPQKQGSAPDAAAASLPAPVFLSTAGLLMGTTRASGPVVTSTCSAESGGRGITTTLCASFEFPLRLQSTDGVAVAVAPSGDATFLQNILRDKTDWPAAQKHREQLSAVMPEMDVVGCYVVCASSRWTSTRHPRGGDDRDGSQLSVGGAVKKAKGEAMAGADHIAAIANCVQQQLRSTSILPSTATGFVLLVVYDKEVTSAAGDTDTAAPNPPHSPAAARLPFDCLYVPATTASDASPTEEVTVGPSDMEWIALANETMMPAYHQSSTTTCSAAVKPGLLRRLCSAAYLTSEGPDSREPANTQTSRMASSQNCRAAEELVGSLRLIMRVLVEMTASTLSPTGTAPDDVELLRTVATCLRNVPVSHPSQPPGEPRAPSELPTEEMLSAILALEVQCALHMRSLSKAQQQLLSSSRSAMTAFHSKACSPKAANPPPPLPSAEGWSTHERDKRSGVNTAVPGHGWV | not soluble
MGSDKIHHHHHHMKLFRPVDGRPNSGSSCILRSYYIIMAYMSMPIASQRQEKDMTEDIRSRIGLRPVINVSGTMTSLGASIVVPEAVEAMAAILPQFVEINDLQRKASAIIARLTGGEAGFVTASCSSGISLAVAGAITGNNLLAIEKLPDIAPEKNEVLVQMGHVVSYGAPVDQAIRLGGGKVVLVGQATSTHRYHMENAITEKTAAAVYVVSHHVVDYGLLHLSEFVEIAHAKGVPVIVDAASEYDLELFLATGADVVLYSGHKFLGGPTSGIVAGSKELVRHAFLQNMGIGRGMKVGKESIYGVMAALEAWEKRDHAGIRERETGYLNLWKKTLDGRPGVTALIEPDPTNNPLDRMRVIIDADEAHITAWDLTTALARGNPPIITRDHEVEHRYFYLDPCNLHPGQETIVASRLAEELDKARASNEMIATPFEDRSRHRFDGMLCWPD | not soluble
